{"source": "patent US11739318B1", "about": "“Modified biosensors and biocatalysts and methods of use” (priority 2017, dated 2023)", "key": {"ccMA": {"tested_on": "ccMA", "experiment": "Intracellular ccMA sensing with CatM sensor in strain CJ184, flow cytometry", "assay_type": "cell-based, P. putida", "description": "FIG. 14A represents the Acinetobacter baylyi CatM promoter region used for selection of ccMA sensing in P. putida KT2440. The regions that were partially diversified or completely randomized are marked ‘red’ and the mutations pursued are labeled. For example −10 and −35 sites were partially randomized for saturation, the ribosome binding site (RBS) was made compatible to the consensus sequence AAGGAG followed by eight bases to the start codon “ATG” of the reporter. Overall the library diversity was expected to be well above 60,000. Using a method similar to what has been described in Example 1-3, catM gene, diversified regulatory region, and sfgfp were inserted into the pBTL2 backbone. The completed circular plasmids, carrying Kanamycin resistance marker, were then transformed into electrocompetent cells of P. putida strain CJ184. The transformation gave well above 60,000 colonies to cover the library adequately. […] Post 16 h of growth at 30° C., the samples were analyzed on a flow cytometer (BD FACSAria III). […] Post third round of sorted population, a fraction was plated on LB agar+Kan50 plates and a few colonies evaluated for PCA, Benzoate and Catechol response, considering CJ184 strain is capable of converting them all to final product ccMA. […]"}, "[1]": {"settings": "individual mutations, hydrolysis of OPs; cited from earlier work"}, "PXN": {"tested_on": "PXN", "experiment": "Whole cell catalysis and sensing of PON1 clones at varying PXN (contrast ratio)", "assay_type": "cell-based, E. coli", "settings": "scaffold PON1-H115W", "description": "(§1) FIGS. 17A-17G show evolution of PON1. […] Residue positions varied in library construction are indicated. […] The circled region is magnified (inset) for easy visualization of the bright colony. […] The contrast ratio is defined as total fluorescence of the cells in the presence of PXN over the background fluorescence of the cells in the absence of PXN. […] The product, pNP, is measured by absorbance (410 nm). Error bars are standard deviation from two independent assays with different fractions from size exclusion chromatography. […] Error bars are the standard deviation of two independent assays using elution fractions from first half and second half of the chromatogram peak from size exclusion chromatography.\nIn order to efficiently screen the library, the biosensor/biocatalyst plasmid consisting of variants of PON1 was directly transferred to high transformation efficiency DH5α cells. […] The colony picking can further be made more stringent by using lower PXN (for example 100 μM) in the growth media and colonies selected based on the fluorescence intensity under an illuminator.\nThe clones were further confirmed for improved activity by using clear cell lysates that were normalized for sfGFP fluorescence (the enzyme variants expressed as sfGFP-PON1 fusion by inducing the same clones with 200 μM pNP) and assayed for activity at different concentrations of PXN. […]"}, "[2]": {"experiment": "PON1 expression and solubility from fluorescence of the cell lysate", "parameters": "species or system E. coli", "settings": "based on the fluorescence of the cell lysate", "description": "The clones were further confirmed for improved activity by using clear cell lysates that were normalized for sfGFP fluorescence (the enzyme variants expressed as sfGFP-PON1 fusion by inducing the same clones with 200 μM pNP) and assayed for activity at different concentrations of PXN. […] The most notable aspect of comparison between the in vivo activity measurements (FIG. 17D) and the in vitro measurements (FIG. 17E) is the relative ranking of the different PON1 variants. While Lib1-C3.3 did show highest Vmax in both formats of experiment, the Lib2-D12 was the lowest in both cases. […] The solubility of other PON1 variants ranged between these two extreme values."}, "pNP sensor": {"tested_on": "pNP sensor", "experiment": "Raw whole cell fluorescence with pNP sensor and sfGFP-PON1 under positive feedback regulation, flow cytometer", "assay_type": "cell-based, E. coli", "settings": "mean of duplicate cultures ± SD", "description": "FIGS. 16A-16D show ‘Catalyze’ and ‘sense’ system for hydrolysis reactions. […] UI: background fluorescence from cells without any pNP source to induce the TF; […]; pNP: TF induced by exogenously supplied pNP as a control/reference. […] Relative activity levels are distinguishable by eye.\nThe technique described here (referred to in this example as “smart microbial cells” or SMC; e.g., FIGS. 1A and 1B) allows for catalysis and sensing in the same microbial cell. For a practical library application, we simplified and improved the signal to noise ratio of the biosensor. This was achieved by gene fusing the PON1 to the GFP so that the TF is also regulating the catalytic enzyme expression as well (scheme shown in FIG. 1B). This fusion is expected to have three distinct effects. First, it provides positive feedback, such that more the activity, the more PON1 is expressed, and in turn further ‘feeds’ the activity. […] Second, feedback will amplify the already present correlation between activity and GFP expression. Third, for suitably chosen GFP, the fluorescence signal conveniently reports the amount of fused PON1 present, allowing normalization for specific activity.\n. Based on the catalytic efficiency and the cytoplasmic concentration of the hydrolase, PXN hydrolysis results in a correlated pNP production inside the microbial cell that ultimately determines activation of the pNP sensor and accumulation of sfGFP in the cells. […] When pNP was used as an inducer, such that the expression of sfGFP-PON1 expression is independent of the catalytic efficiency of PON1, modest differences in cell fluorescence were still captured across the PON1 variants indicating V346A mutation could be detrimental to PON1 expression and stability (FIG. 16C, Table 6)."}, "[3]": {"experiment": "Paraoxonase activity of purified PON1 variants (pNP absorbance 410 nm)", "assay_type": "biochemical", "settings": "400 μM PXN", "description": "as §1\nFinally, the gene for top PON1 variant Lib1-C3.3 (H115W, L69V, K70Q, Y71L, G73A) and the scaffold (H115W) were transferred to a pRSF-1b vector (Novagen) and expressed as a C-terminal 6×His-tagged protein. Post two-step purification using affinity column and a size exclusion chromatography, pure fractions were combined and tested for activity at varying concentrations of PXN. […]"}}, "data": [{"molecule": "CatM_C2.9: CatM variant V97I, G127A, T128A, L147V with weaker ccMA sensitivity, SEQ ID NO: 25 (protein, CatM_C2.9) MELRHLRYFVTVVEEQSISKAAEKLCIAQPPLSRQIQKLEEELGIQLFERGFRPAKVTEAGMFFYQHAVQILTHTAQASSMAKRIATVSQTLRIGYISSLLYGLLPEIIYLFRQQNPEIHIELIECAAKDQINALKQGKIDLGFGRVKITDPAIRRIVLHKEQLKLAIHKHHHLNQFAATGVHLSQIIDEPMLLYPVSQKPNFATFIQSLFTELGLVPSKLTEIREIQLALGLVAAGEGVCIVPASAMDIGVKNLLYIPILDDDAYSPISLAVRNMDHSNYIPKILACVQEVFATHHIRPLIE", "values": [{"measurement": "ccMA titer for dose-response (low sensitivity)", "setting": "ccMA; CJ184", "result": "> 10", "unit": "mM"}]}, {"molecule": "CatM_A9: CatM regulated promoter variant for reduced signal output, SEQ ID NO: 23 (nucleic acid, listed as DNA, chemistry not fully specified) DNA: TTATACGCCCTAATTGGTTTTATATACCTTTTTAGTATGCAAAAATACCAAATTGGTGTGGATTTTTATTATTACATTAATTTACAGTATGTAAATAGTATTTATTGAAAAGAAGATGGACCG", "values": [{"measurement": "fluorescence and dose-response", "setting": "ccMA; compared with CatM_C2", "result": "weaker fluorescence but very similar dose-response as the CatM_C2"}]}, {"molecule": "L69V: PON1 individual point mutation L69V from the literature (protein, UniProt P27169 2-355, looked up, variant L69V) Serum …: AKLIALTLLGMGLALFRNHQSSYQTRLNALREVQPVELPNCNLVKGIETGSEDLEILPNGLAFISSGVKYPGIKSFNPNSPGKILLMDLNEEDPTVLELGITGSKFDVSSFNPHGISTFTDEDNAMYLLVVNHPDAKSTVELFKFQEEEKSLLHLKTIRHKLLPNLNDIVAVGPEHFYGTNDHYFLDPYLQSWEMYLGLAWSYVVYYSPSEVRVVAEGFDFANGINISPDGKYVYIAELLAHKIHVYEKHANWTLTPLKSLDFNTLVDNISVDPETGDLWVGCHPNGMKIFFYDSENPPASEVLRIQNILTEEPKVTQVYAENGTVLQGSTVASVYKGKLLIGTVFHKALYCEL", "values": [{"measurement": "higher catalytic efficiency over the wild-type", "setting": "[1]", "result": "four- to sixteen and four"}]}, {"molecule": "Lib2-D12: PON1 clone from Lib2, H115W scaffold with F222I, F292I (protein, UniProt P27169 2-355, looked up, variant H115W F222I F292I) Serum …: AKLIALTLLGMGLALFRNHQSSYQTRLNALREVQPVELPNCNLVKGIETGSEDLEILPNGLAFISSGLKYPGIKSFNPNSPGKILLMDLNEEDPTVLELGITGSKFDVSSFNPWGISTFTDEDNAMYLLVVNHPDAKSTVELFKFQEEEKSLLHLKTIRHKLLPNLNDIVAVGPEHFYGTNDHYFLDPYLQSWEMYLGLAWSYVVYYSPSEVRVVAEGFDIANGINISPDGKYVYIAELLAHKIHVYEKHANWTLTPLKSLDFNTLVDNISVDPETGDLWVGCHPNGMKIIFYDSENPPASEVLRIQNILTEEPKVTQVYAENGTVLQGSTVASVYKGKLLIGTVFHKALYCEL", "values": [{"measurement": "contrast ratio higher than the scaffold", "setting": "PXN", "result": 2, "unit": "fold"}, {"measurement": "protein yield compared to the scaffold", "setting": "[2]", "result": 50, "unit": "%"}]}, {"molecule": "V346A: published PON1 variant with mutation V346A (protein, UniProt P27169 2-355, looked up, variant V346A) Serum …: AKLIALTLLGMGLALFRNHQSSYQTRLNALREVQPVELPNCNLVKGIETGSEDLEILPNGLAFISSGLKYPGIKSFNPNSPGKILLMDLNEEDPTVLELGITGSKFDVSSFNPHGISTFTDEDNAMYLLVVNHPDAKSTVELFKFQEEEKSLLHLKTIRHKLLPNLNDIVAVGPEHFYGTNDHYFLDPYLQSWEMYLGLAWSYVVYYSPSEVRVVAEGFDFANGINISPDGKYVYIAELLAHKIHVYEKHANWTLTPLKSLDFNTLVDNISVDPETGDLWVGCHPNGMKIFFYDSENPPASEVLRIQNILTEEPKVTQVYAENGTVLQGSTVASVYKGKLLIGTAFHKALYCEL", "values": [{"measurement": "Raw whole cell fluorescence intensity, PXN (1.6 mM)", "setting": "pNP sensor; exogenous paraoxon 1.6 mM", "result": "895 ± 39"}, {"measurement": "Raw whole cell fluorescence intensity, pNP (200 μM)", "setting": "pNP sensor; induced with exogenous pNP 200 μM", "result": "6263 ± 57"}, {"measurement": "Raw whole cell fluorescence intensity, UI", "setting": "pNP sensor; uninduced, no pNP source", "result": "174 ± 29"}, {"measurement": "higher catalytic efficiency over the wild-type", "setting": "[1]", "result": "four- to sixteen"}]}, {"molecule": "Lib1-C3.3: top PON1 variant (H115W, L69V, K70Q, Y71L, G73A) (protein, UniProt P27169 2-355, looked up, variant H115W L69V K70Q Y71L G73A) Serum …: AKLIALTLLGMGLALFRNHQSSYQTRLNALREVQPVELPNCNLVKGIETGSEDLEILPNGLAFISSGVQLPAIKSFNPNSPGKILLMDLNEEDPTVLELGITGSKFDVSSFNPWGISTFTDEDNAMYLLVVNHPDAKSTVELFKFQEEEKSLLHLKTIRHKLLPNLNDIVAVGPEHFYGTNDHYFLDPYLQSWEMYLGLAWSYVVYYSPSEVRVVAEGFDFANGINISPDGKYVYIAELLAHKIHVYEKHANWTLTPLKSLDFNTLVDNISVDPETGDLWVGCHPNGMKIFFYDSENPPASEVLRIQNILTEEPKVTQVYAENGTVLQGSTVASVYKGKLLIGTVFHKALYCEL", "values": [{"measurement": "turnover number higher than the starting sequence", "setting": "[3]", "result": "approximately thirty"}, {"measurement": "linear rate exceeding that of PON1-H115W", "setting": "[3]; at ten-fold lower protein concentration", "result": "three"}, {"measurement": "protein yield compared to the scaffold", "setting": "[2]", "result": 95, "unit": "%"}]}]}
